The results in this text go back to patent publication US20140087995A1 (published 2014).

The labels stand for the following.
B1: N^ε1-[2-[2-[2-[[(4S)-4-carboxy-4-(19-carboxynonadecanoylamino)butanoyl]amino]ethoxy]ethoxy]acetyl]-[Arg17,Pro21,Pro27,Pro34,His35]-h-amylin (peptide)
peptide: K([AEEA-γGlu-C20 diacid])CNTATCATQRLANFLRHSSPNFGAIPSSTNVGPHTY-NH2
modifications: disulfide 2-7; N-terminus assumed
SMILES: CC[C@H](C)[C@H](NC(=O)[C@H](C)NC(=O)CNC(=O)[C@H](Cc1ccccc1)NC(=O)[C@H](CC(N)=O)NC(=O)[C@@H]1CCCN1C(=O)[C@H](CO)NC(=O)[C@H](CO)NC(=O)[C@H](Cc1c[nH]cn1)NC(=O)[C@H](CCCNC(=N)N)NC(=O)[C@H](CC(C)C)NC(=O)[C@H](Cc1ccccc1)NC(=O)[C@H](CC(N)=O)NC(=O)[C@H](C)NC(=O)[C@H](CC(C)C)NC(=O)[C@H](CCCNC(=N)N)NC(=O)[C@H](CCC(N)=O)NC(=O)[C@@H](NC(=O)[C@H](C)NC(=O)[C@@H]1CSSC[C@H](NC(=O)[C@@H](N)CCCCNC(=O)COCCOCCNC(=O)CC[C@H](NC(=O)CCCCCCCCCCCCCCCCCCC(=O)O)C(=O)O)C(=O)N[C@@H](CC(N)=O)C(=O)N[C@@H]([C@@H](C)O)C(=O)N[C@@H](C)C(=O)N[C@@H]([C@@H](C)O)C(=O)N1)[C@@H](C)O)C(=O)N1CCC[C@H]1C(=O)N[C@@H](CO)C(=O)N[C@@H](CO)C(=O)N[C@H](C(=O)N[C@@H](CC(N)=O)C(=O)N[C@H](C(=O)NCC(=O)N1CCC[C@H]1C(=O)N[C@@H](Cc1c[nH]cn1)C(=O)N[C@H](C(=O)N[C@@H](Cc1ccc(O)cc1)C(N)=O)[C@@H](C)O)C(C)C)[C@@H](C)O
notes: Synthetic analogue; also called compound 58
B2: N^ε1-[2-[2-[2-[[(4S)-4-carboxy-4-(19-carboxynonadecanoylamino)butanoyl]amino]ethoxy]ethoxy]acetyl]-[His14,Arg17,Pro21,Pro27,Pro31]-h-amylin (peptide)
peptide: K([AEEA-γGlu-C20 diacid])CNTATCATQRLAHFLRHSSPNFGAIPSSTPVGSNTY-NH2
modifications: disulfide 2-7; N-terminus assumed
SMILES: CC[C@H](C)[C@H](NC(=O)[C@H](C)NC(=O)CNC(=O)[C@H](Cc1ccccc1)NC(=O)[C@H](CC(N)=O)NC(=O)[C@@H]1CCCN1C(=O)[C@H](CO)NC(=O)[C@H](CO)NC(=O)[C@H](Cc1c[nH]cn1)NC(=O)[C@H](CCCNC(=N)N)NC(=O)[C@H](CC(C)C)NC(=O)[C@H](Cc1ccccc1)NC(=O)[C@H](Cc1c[nH]cn1)NC(=O)[C@H](C)NC(=O)[C@H](CC(C)C)NC(=O)[C@H](CCCNC(=N)N)NC(=O)[C@H](CCC(N)=O)NC(=O)[C@@H](NC(=O)[C@H](C)NC(=O)[C@@H]1CSSC[C@H](NC(=O)[C@@H](N)CCCCNC(=O)COCCOCCNC(=O)CC[C@H](NC(=O)CCCCCCCCCCCCCCCCCCC(=O)O)C(=O)O)C(=O)N[C@@H](CC(N)=O)C(=O)N[C@@H]([C@@H](C)O)C(=O)N[C@@H](C)C(=O)N[C@@H]([C@@H](C)O)C(=O)N1)[C@@H](C)O)C(=O)N1CCC[C@H]1C(=O)N[C@@H](CO)C(=O)N[C@@H](CO)C(=O)N[C@H](C(=O)N1CCC[C@H]1C(=O)N[C@H](C(=O)NCC(=O)N[C@@H](CO)C(=O)N[C@@H](CC(N)=O)C(=O)N[C@H](C(=O)N[C@@H](Cc1ccc(O)cc1)C(N)=O)[C@@H](C)O)C(C)C)[C@@H](C)O
notes: Synthetic analogue; also called compound 61
B3: N^ε1-[(4S)-4-carboxy-4-(19-carboxynonadecanoylamino)butanoyl]-[Arg17,Pro21,Pro27,His35]-h-amylin (peptide)
peptide: K([γGlu-C20 diacid])CNTATCATQRLANFLRHSSPNFGAIPSSTNVGSHTY-NH2
modifications: disulfide 2-7; N-terminus assumed
SMILES: CC[C@H](C)[C@H](NC(=O)[C@H](C)NC(=O)CNC(=O)[C@H](Cc1ccccc1)NC(=O)[C@H](CC(N)=O)NC(=O)[C@@H]1CCCN1C(=O)[C@H](CO)NC(=O)[C@H](CO)NC(=O)[C@H](Cc1c[nH]cn1)NC(=O)[C@H](CCCNC(=N)N)NC(=O)[C@H](CC(C)C)NC(=O)[C@H](Cc1ccccc1)NC(=O)[C@H](CC(N)=O)NC(=O)[C@H](C)NC(=O)[C@H](CC(C)C)NC(=O)[C@H](CCCNC(=N)N)NC(=O)[C@H](CCC(N)=O)NC(=O)[C@@H](NC(=O)[C@H](C)NC(=O)[C@@H]1CSSC[C@H](NC(=O)[C@@H](N)CCCCNC(=O)CC[C@H](NC(=O)CCCCCCCCCCCCCCCCCCC(=O)O)C(=O)O)C(=O)N[C@@H](CC(N)=O)C(=O)N[C@@H]([C@@H](C)O)C(=O)N[C@@H](C)C(=O)N[C@@H]([C@@H](C)O)C(=O)N1)[C@@H](C)O)C(=O)N1CCC[C@H]1C(=O)N[C@@H](CO)C(=O)N[C@@H](CO)C(=O)N[C@H](C(=O)N[C@@H](CC(N)=O)C(=O)N[C@H](C(=O)NCC(=O)N[C@@H](CO)C(=O)N[C@@H](Cc1c[nH]cn1)C(=O)N[C@H](C(=O)N[C@@H](Cc1ccc(O)cc1)C(N)=O)[C@@H](C)O)C(C)C)[C@@H](C)O
notes: Synthetic analogue; also called compound 60
B4: N^ε1-[(4S)-4-carboxy-4-(19-carboxynonadecanoylamino)butanoyl]-[Arg14,Arg17,Pro21,Pro27,Pro31]-h-amylin (peptide)
peptide: K([γGlu-C20 diacid])CNTATCATQRLARFLRHSSPNFGAIPSSTPVGSNTY-NH2
modifications: disulfide 2-7; N-terminus assumed
SMILES: CC[C@H](C)[C@H](NC(=O)[C@H](C)NC(=O)CNC(=O)[C@H](Cc1ccccc1)NC(=O)[C@H](CC(N)=O)NC(=O)[C@@H]1CCCN1C(=O)[C@H](CO)NC(=O)[C@H](CO)NC(=O)[C@H](Cc1c[nH]cn1)NC(=O)[C@H](CCCNC(=N)N)NC(=O)[C@H](CC(C)C)NC(=O)[C@H](Cc1ccccc1)NC(=O)[C@H](CCCNC(=N)N)NC(=O)[C@H](C)NC(=O)[C@H](CC(C)C)NC(=O)[C@H](CCCNC(=N)N)NC(=O)[C@H](CCC(N)=O)NC(=O)[C@@H](NC(=O)[C@H](C)NC(=O)[C@@H]1CSSC[C@H](NC(=O)[C@@H](N)CCCCNC(=O)CC[C@H](NC(=O)CCCCCCCCCCCCCCCCCCC(=O)O)C(=O)O)C(=O)N[C@@H](CC(N)=O)C(=O)N[C@@H]([C@@H](C)O)C(=O)N[C@@H](C)C(=O)N[C@@H]([C@@H](C)O)C(=O)N1)[C@@H](C)O)C(=O)N1CCC[C@H]1C(=O)N[C@@H](CO)C(=O)N[C@@H](CO)C(=O)N[C@H](C(=O)N1CCC[C@H]1C(=O)N[C@H](C(=O)NCC(=O)N[C@@H](CO)C(=O)N[C@@H](CC(N)=O)C(=O)N[C@H](C(=O)N[C@@H](Cc1ccc(O)cc1)C(N)=O)[C@@H](C)O)C(C)C)[C@@H](C)O
notes: Synthetic analogue; also called compound 63
B5: N^ε1-[2-[2-[2-[[(4S)-4-carboxy-4-(19-carboxynonadecanoylamino)butanoyl]amino]ethoxy]ethoxy]acetyl]-[Arg17,Pro21,Pro27,Pro34]-h-amylin (peptide)
peptide: K([AEEA-γGlu-C20 diacid])CNTATCATQRLANFLRHSSPNFGAIPSSTNVGPNTY-NH2
modifications: disulfide 2-7; N-terminus assumed
SMILES: CC[C@H](C)[C@H](NC(=O)[C@H](C)NC(=O)CNC(=O)[C@H](Cc1ccccc1)NC(=O)[C@H](CC(N)=O)NC(=O)[C@@H]1CCCN1C(=O)[C@H](CO)NC(=O)[C@H](CO)NC(=O)[C@H](Cc1c[nH]cn1)NC(=O)[C@H](CCCNC(=N)N)NC(=O)[C@H](CC(C)C)NC(=O)[C@H](Cc1ccccc1)NC(=O)[C@H](CC(N)=O)NC(=O)[C@H](C)NC(=O)[C@H](CC(C)C)NC(=O)[C@H](CCCNC(=N)N)NC(=O)[C@H](CCC(N)=O)NC(=O)[C@@H](NC(=O)[C@H](C)NC(=O)[C@@H]1CSSC[C@H](NC(=O)[C@@H](N)CCCCNC(=O)COCCOCCNC(=O)CC[C@H](NC(=O)CCCCCCCCCCCCCCCCCCC(=O)O)C(=O)O)C(=O)N[C@@H](CC(N)=O)C(=O)N[C@@H]([C@@H](C)O)C(=O)N[C@@H](C)C(=O)N[C@@H]([C@@H](C)O)C(=O)N1)[C@@H](C)O)C(=O)N1CCC[C@H]1C(=O)N[C@@H](CO)C(=O)N[C@@H](CO)C(=O)N[C@H](C(=O)N[C@@H](CC(N)=O)C(=O)N[C@H](C(=O)NCC(=O)N1CCC[C@H]1C(=O)N[C@@H](CC(N)=O)C(=O)N[C@H](C(=O)N[C@@H](Cc1ccc(O)cc1)C(N)=O)[C@@H](C)O)C(C)C)[C@@H](C)O
notes: Synthetic analogue; also called compound 50

By IC50 is commonly meant the concentration needed to halve the response being measured.

Numbered stars: 1 amine (or outer) side, 2 acyl side, 3 side chain; on linkers, the order of the positions; unused ones are H or OH. Bridge positions count the residues as written; N and C are the ends. Side chains are listed from the residue outwards. Ends that are not written are not given here. * marks the point of attachment. C20 diacid = O=C(O)CCCCCCCCCCCCCCCCCCC(=O)*; γGlu = O=C(O)[C@H](CCC(=O)[*:2])N[*:1]; AEEA = NCCOCCOCC(=O)O

This test addresses T1, human calcitonin receptor (human, UniProt P30988 25-474).
T1 construct: whole, on cells; Assay used cell membranes of the transfected BHK cells; also called hCTR; hCT
T1 sequence (looked up): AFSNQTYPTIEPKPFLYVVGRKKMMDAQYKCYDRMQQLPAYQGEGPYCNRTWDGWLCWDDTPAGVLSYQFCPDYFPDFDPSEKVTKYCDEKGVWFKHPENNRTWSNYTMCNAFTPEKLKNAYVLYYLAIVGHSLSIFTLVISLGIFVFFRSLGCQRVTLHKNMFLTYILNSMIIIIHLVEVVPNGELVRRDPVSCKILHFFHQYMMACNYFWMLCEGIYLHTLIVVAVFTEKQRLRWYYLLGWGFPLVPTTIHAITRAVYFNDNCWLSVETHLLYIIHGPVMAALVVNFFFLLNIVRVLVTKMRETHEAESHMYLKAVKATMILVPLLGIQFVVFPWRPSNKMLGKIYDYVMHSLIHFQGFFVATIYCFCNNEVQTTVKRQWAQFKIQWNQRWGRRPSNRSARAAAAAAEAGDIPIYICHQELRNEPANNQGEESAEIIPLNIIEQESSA
Briefly: SPA radioligand competition (125I-calcitonin), membranes of BHK cells with human calcitonin receptor. In short, it runs like this: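 BHK hCTR membranes 35 ng/μL + SPA beads 0.05 mg/well; buffer 50 mM Hepes pH 7.4, 1 mM CaCl2, 5 mM MgCl₂, 0.1% OA, 0.02% Tween20. 120 min, 25° C., shaking. Scintillation count; IC50 by one-site binding competition.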
Take B1: the IC50 was determined as 9.63 nM.

With B2, the IC50 is 8.11 nM.

B3: the IC50 stood at 31.4 nM.

In the case of B4, the IC50 was 130 nM.

On to B5, for which the IC50 was determined as 1.38 nM.
